B1: S116B-C4: monoclonal RNA aptamer, specific ligand to HPPD from competitive SELEX S116B, SEQ. ID. No. 4 (nucleic acid)
chain: GGGAGAGGAGGGAGAUAGAUAUCAAGUAACAAAUGAUACUUUCCAAGCAUAAUUCAUUCGCAGCCCGAAUUAAGUUUGUCCUCACGGUGGAUGG
modifications: RNA, backbone not given here
B2: S115A-C1: monoclonal RNA aptamer binding HPPD from classical SELEX run S115A, SEQ. ID. No. 2 (nucleic acid)
chain: GGGAGAGGAGGGAGAUAGAUAUCAACAAUGACUAGCCGUGUAAGUGGUCUCGUACAUCCGAAAAAGACGACCCAGUUUGUCCUCACGGUGGAUGG
modifications: listed as RNA, chemistry not given here
B3: S116D-C8: monoclonal RNA aptamer, specific ligand to HPPD from competitive SELEX S116D, SEQ. ID. No. 5 (nucleic acid)
chain: GGGAGAGGAGGGAGAUAGAUAUCAAUAAAGUCGGUGACACCACGCAUCCAAAUACCGGUACGCGGAACUAAUAGUUUGUCCUCACGGUGGAUGG
modifications: RNA, backbone not given here
B4: S116C-C18 (nucleic acid)
DNA: GGGAGAGGAGGGAGAUAGAUAUCAAUAUCGCCACGUUACGAGUACCAAGCUUUAUUUCCGCAGCCCGAUAGAGUUUGUCCUCACGGUGGAUGG
modifications: chemistry not given here

What was measured:
[1] = biological target: T1, recombinant, His-tagged HPPD (p-hydroxyphenylpyruvate dioxygenase) (Arabidopsis thaliana, UniProt P93836); experiment: nitrocellulose filter retention assay, binding of radioactively labelled RNA to recombinant HPPD; conditions: monoclonal aptamer, recombinant HPPD at various concentrations; read-out: dissociation constant
T1 construct: His-tag
T1 sequence (P93836 1-445): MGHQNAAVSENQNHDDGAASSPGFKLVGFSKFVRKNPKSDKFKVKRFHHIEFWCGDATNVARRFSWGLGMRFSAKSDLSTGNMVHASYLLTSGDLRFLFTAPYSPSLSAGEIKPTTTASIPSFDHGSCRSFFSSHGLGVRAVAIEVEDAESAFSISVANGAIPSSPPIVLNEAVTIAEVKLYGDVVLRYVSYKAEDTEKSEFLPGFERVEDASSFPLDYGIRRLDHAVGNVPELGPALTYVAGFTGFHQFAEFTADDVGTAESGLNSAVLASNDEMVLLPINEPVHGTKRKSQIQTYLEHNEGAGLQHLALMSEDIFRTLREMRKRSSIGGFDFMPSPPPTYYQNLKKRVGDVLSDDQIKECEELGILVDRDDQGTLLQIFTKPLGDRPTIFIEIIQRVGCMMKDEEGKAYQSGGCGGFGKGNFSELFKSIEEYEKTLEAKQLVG
Description: Recombinant, His-tagged HPPD was targeted as an interaction partner in two SELEX runs, referred to as S115A and S115E, which comprised 12 and 9 cycles, respectively. Briefly, the protein was biotinylated and exposed to the RNA library with a 47 nucleotide random region (N47α) in 20 mM Hepes (pH 7.4), 150 mM NaCl, 3 mM MgCl2, and 1 mg/ml BSA (in vitro selection 5115A) or 20 mM Hepes (pH 7.4), 150 mM NaCl, 3 mM MgCl2, 10% DMSO and 1 mg/ml BSA (in vitro selection S115B). The library N47α consists of a random region of 47 nucleotides which is flanked by fixed sequences at the 5′ and 3′ end that serve as primer annealing sites for the amplification of the selected aptamer sequences via reverse transcription and PCR. The 5′ region additionally contains the sequence of an T7-RNA polymerase promoter that enables the transcription of the PCR DNA template into RNA. The sense sequence of the PCR DNA template is “5″-[…]-N47-[…]-3′ (SEQ. ID No. 1). The T7-RNA polymerase promoter is underlined. The double stranded DNA template was used to transcribe the initial RNA library. The procedures to produce an RNA library and to perform a SELEX experiment are well known to a person skilled in the art and described in, e.g., Methods in Enzymology, Vol 267, Combinatorial Chemistry (1996), Abelson J. N. and Simon M. I., eds. Academic Press, San Diego. Subsequently, the complexes between target and RNA were captured on streptavidin-coated beads and unbound RNA was removed by washing with binding buffer. […] RNA bound to the target protein is retained within the complex on the filter and was quantified by a phosphoimager. Values were calculated as the percentage of total radiolabeled RNA in the reaction.
(§1) The dissociation constant (FIG. 4B) was determined to be 128±11 nM. consistent with strong binding to S115A-C1 to recombinant HPPD.
To determine the binding properties of individual aptamers isolated as part of the mixture of aptamers binding to HPPD in the previous example, aptamers were cloned into a vector, and 24 clones were sequenced. For each experiment out of S116B, S116C and S116D, one of the cloned aptamers subsequently identified as specific ligands to HPPD (termed S116C-C18 (5″-GGGAGAGGAGGGAGAUAGAUAUCAAUAUCGCCACGUUACGAGUACCAAGCUULJ […]-3″ (SEQ. ID. No. 3)), S116B-C4 (5′-[…] UGG-3′ (SEQ. ID. No. 4)) and S116D-C8 (5″-GGGAGAGGAGGG […]-3′) (SEQ. ID. No. 5)) was analysed with respect to the thermodynamics of the binding. […] The dissociation constants determined for S116B-C4, S116C-C18 and S116D-C8, were 740±39, 832±39 and 120±9 nM, respectively, consistent with the view that decreasing the concentration of the interaction partner to 2 pM (experiment S116D) actually yield the most tightly binding aptamer.

control proteins = experiment: nitrocellulose filter retention assay with control proteins as negative controls; format: binding; conditions: HPPD replaced by an equivalent concentration of control proteins
Description: Recombinant, His-tagged HPPD was targeted as an interaction partner in two SELEX runs, referred to as S115A and S115E, which comprised 12 and 9 cycles, respectively. Briefly, the protein was biotinylated and exposed to the RNA library with a 47 nucleotide random region (N47α) in 20 mM Hepes (pH 7.4), 150 mM NaCl, 3 mM MgCl2, and 1 mg/ml BSA (in vitro selection 5115A) or 20 mM Hepes (pH 7.4), 150 mM NaCl, 3 mM MgCl2, 10% DMSO and 1 mg/ml BSA (in vitro selection S115B). The library N47α consists of a random region of 47 nucleotides which is flanked by fixed sequences at the 5′ and 3′ end that serve as primer annealing sites for the amplification of the selected aptamer sequences via reverse transcription and PCR. The 5′ region additionally contains the sequence of an T7-RNA polymerase promoter that enables the transcription of the PCR DNA template into RNA. The sense sequence of the PCR DNA template is “5″-[…]-N47-[…]-3′ (SEQ. ID No. 1). The T7-RNA polymerase promoter is underlined. The double stranded DNA template was used to transcribe the initial RNA library. […] RNA bound to the target protein is retained within the complex on the filter and was quantified by a phosphoimager. Values were calculated as the percentage of total radiolabeled RNA in the reaction.
as §1

recombinant HPPD = biological target: T2, recombinant HPPD (Arabidopsis thaliana, UniProt P93836); experiment: pull down of recombinant HPPD with biotinylated aptamers immobilised on streptavidin beads (SDS-PAGE); format: binding; conditions: for pull down of HPPD (protein band on SDS-PAGE): 10 μg of HPPD, in the absence of protein extract
T2 construct: His-tag
T2 sequence (P93836 1-445): T1 sequence (P93836 1-445)
Description: To confirm the concept that aptamers isolated using the competitive SELEX approach can be used to identify the interaction partner of interest, the two tightly binding aptamers S116C-C18 and S116D-C8, henceforth referred to as anti-HPPD aptamers, were biotinylated by in vitro transcription, using the appropriate DNA template and biotinylated ApG starter nucleotides (IBA, Göttingen) (Pitulle C. et al. (1992), Gene, 112(1):101-5; Gaur R. K. et al. (2004), Methods Mol. Biol. 252:9-17) and immobilised on paramagnetic streptavidin (SA) beads.
By contrast, the protein band assigned to HPPD was not visible when negative controls (beads only and N47α immobilised on beads) were used.

endogenous HPPD = biological target: T3, endogenous HPPD (Arabidopsis thaliana, UniProt P93836); experiment: pull down of endogenous HPPD from protein extract with immobilised aptamer (SDS-PAGE); format: binding; conditions: protein extract only as the source of HPPD, no recombinant protein added
T3 construct: pull down endogenous HPPD in protein extract, i.e. no recombinant protein was added; from tissue; host or cells: protein extract from freeze-dried powder of Arabidopsis thaliana
T3 sequence (P93836 1-445): T1 sequence (P93836 1-445)
Description: For a realistic proof of principle scenario representing attempts to identify an unknown interaction partner, biotinylated aptamer S116D-C8 was immobilised and used in attempts to pull down endogenous HPPD in protein extract, i.e. no recombinant protein was added. Again, appropriate controls such as N47α as a negative control and S116D-C8 together with recombinant HPPD were included.

| Molecule | Kd [1] | binding to / retention by control proteins (control proteins) | pull down of HPPD (protein band on SDS-PAGE) (recombinant HPPD) | pull down of recombinant HPPD (protein band on SDS-PAGE) (recombinant HPPD; different amounts of HPPD, in the presence of increasing amounts of PE) | pull down of endogenous HPPD (protein band on SDS-PAGE) (endogenous HPPD) |
| --- | --- | --- | --- | --- | --- |
| B1 | 740 ± 39 nM | – | – | – | – |
| B2 | 128 ± 11 nM | not by any of the control proteins | – | – | – |
| B3 | 120 ± 9 nM | – | could be used to pull down HPPD | could be used to purify conveniently detectable amounts of HPPD | a protein band was visually detectable |
| B4 | 832 ± 39 nM | – | could be used to pull down HPPD | – | – |
